Measurements published in patent publication US20180298070A1, “PEPTIDE COMPOUND” (Takeda Pharmaceutical Company Limited, published 2018).
Starred links: 1 amine or outer side, 2 acyl side, 3 side chain; linkers in the order of their positions; H or OH if unused. Non-standard residues stand in square brackets, D forms with d. Groups on a side chain read outwards from the residue. Primed or numbered codes have the meaning given here. No end group written: not given here. *: point of attachment. C20 diacid = O=C(O)CCCCCCCCCCCCCCCCCCC(=O)*; γGlu = O=C(O)[C@H](CCC(=O)[*:2])N[*:1]; NMeY = CN[C@@H](Cc1ccc(O)cc1)C(=O)O; αMeF = C[C@](N)(Cc1ccccc1)C(=O)O; Myristoyl = CCCCCCCCCCCCCC(=O)*; Undecanoyl = CCCCCCCCCCC(=O)*; Lauroyl = CCCCCCCCCCCC(=O)*; Decanoyl = CCCCCCCCCC(=O)*; dIva = CC[C@@](C)(N)C(=O)O; Iva = CC[C@](C)(N)C(=O)O; PEG2′ = not defined here; PEG3′ = not defined here; PEG4′ = not defined here; Aib = CC(C)(N)C(=O)O

Assays:
[1] = molecular target: T1, human GLP-1R (human), P43220
T1 chain: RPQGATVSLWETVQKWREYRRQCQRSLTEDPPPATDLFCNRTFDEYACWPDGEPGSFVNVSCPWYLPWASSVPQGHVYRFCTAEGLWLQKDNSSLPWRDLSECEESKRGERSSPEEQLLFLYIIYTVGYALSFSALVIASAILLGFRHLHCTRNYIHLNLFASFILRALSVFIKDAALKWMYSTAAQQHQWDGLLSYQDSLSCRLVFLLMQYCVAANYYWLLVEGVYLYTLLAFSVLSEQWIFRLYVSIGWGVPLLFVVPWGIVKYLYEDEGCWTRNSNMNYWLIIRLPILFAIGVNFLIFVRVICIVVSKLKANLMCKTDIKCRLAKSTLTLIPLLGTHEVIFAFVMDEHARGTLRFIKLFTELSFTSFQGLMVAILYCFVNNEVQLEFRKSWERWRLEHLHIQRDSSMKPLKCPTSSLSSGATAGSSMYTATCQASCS

[2] = molecular target: T2, human GIPR (human), P48546
T2 chain: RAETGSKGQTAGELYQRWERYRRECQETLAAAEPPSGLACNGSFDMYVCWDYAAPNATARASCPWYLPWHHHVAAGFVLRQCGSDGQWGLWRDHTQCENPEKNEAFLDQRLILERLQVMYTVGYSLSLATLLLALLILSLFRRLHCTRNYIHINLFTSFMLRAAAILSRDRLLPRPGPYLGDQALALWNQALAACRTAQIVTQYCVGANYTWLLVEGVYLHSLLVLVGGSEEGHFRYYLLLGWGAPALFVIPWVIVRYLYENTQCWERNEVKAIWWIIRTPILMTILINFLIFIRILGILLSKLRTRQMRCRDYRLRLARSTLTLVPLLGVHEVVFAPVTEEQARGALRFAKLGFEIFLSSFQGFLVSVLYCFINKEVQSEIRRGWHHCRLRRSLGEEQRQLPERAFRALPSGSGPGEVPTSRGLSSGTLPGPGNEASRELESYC

[3] = molecular target: T2, human GIPR (human), P48546; experiment: [125I]GIP displacement, hGIPR VLP

Which Agonist activity (EC50, M) [1] does the source give for Y[Aib]EGTFISDYSK([PEG2′-Myristoyl])ALDRIAQQDFVNWLLAQRPSSGAPPPSR (ends and bridges not checked) [Compound 186] here?
The Agonist activity (EC50, M) was 1.3e-08 M.

What about the Agonist activity (EC50, M) [2] of the same binder?
The Agonist activity (EC50, M) was 6.4e-12 M.

How did the Agonist activity (EC50, M) [1] turn out when Y[Aib]EGTFISDYSK([PEG(4)-Pal])ALDRIAQQDFVNWLLAQRPSSGAPPPSR (ends and bridges not checked) [Compound 190] was run?
Its Agonist activity (EC50, M) is greater than 1e-06 M.

And the Agonist activity (EC50, M) [2]?
The Agonist activity (EC50, M) was 2.1e-11 M.

How did the Agonist activity (EC50, M) [1] turn out when Y[Aib]EGTFISDYSK([PEG(2)-Lauroyl])ALDRIAQQD[αMeF]VNWLLAQRPSSGAPPPS (ends and bridges not checked) [Compound 202] was run?
Its Agonist activity (EC50, M) is 1.8e-07 M.

And the Agonist activity (EC50, M) [2]?
Its Agonist activity (EC50, M) is 4.6e-12 M.

Which Agonist activity (EC50, M) [1] does the source give for Y[Aib]EGTFISDYSK([PEG2′-Decanoyl])ALDRIAQQDFVNWLLAQRPSSGAPPPSR (ends and bridges not checked) [Compound 182] here?
The Agonist activity (EC50, M) was 4.8e-08 M.

And the Agonist activity (EC50, M) [2]?
The Agonist activity (EC50, M) was 3.3e-12 M.

With Y[Aib]EGTFISDYSK([PEG2′-Lauroyl])ALDRIHQ[Aib]N[αMeF]VNW[Iva]LAQRPSSGAPPPS (not fully specified (C-terminus); ends and bridges not checked) [Compound 216] as the binder, how does the Agonist activity (EC50, M) [1] read?
The Agonist activity (EC50, M) was 1.5e-07 M.

And the Agonist activity (EC50, M) [2]?
The Agonist activity (EC50, M) was 4.8e-12 M.

With Y[Aib]EGTFISDYSK([PEG4′-Lauroyl])ALDRIAQQDFVNWLLAQRPSSGAPPPSR (ends and bridges not checked) [Compound 189] as the binder, how does the Agonist activity (EC50, M) [1] read?
Its Agonist activity (EC50, M) is 2.7e-08 M.

What about the Agonist activity (EC50, M) [2] of the same binder?
Its Agonist activity (EC50, M) is 6.8e-12 M.

How did the Agonist activity (EC50, M) [1] turn out when Y[Aib]EGTFISDYSK([PEG(2)-Lauroyl])ALDRIHQQD[αMeF]VNWLLAQRPSSGAPPPS (ends and bridges not checked) [Compound 208] was run?
Its Agonist activity (EC50, M) is greater than 1e-06 M.

And the Agonist activity (EC50, M) [2]?
The Agonist activity (EC50, M) was 6.1e-12 M.

For Y[Aib]EGTVVSLYSI[Aib]LDKQAQ[Aib]EFVKWLLAQKK(Pal) (ends and bridges not checked) [Compound 161], which IC50 [3] is on record?
Its IC50 is 24 nM.

What about the Agonist activity (EC50, M) [1] of the same binder?
The Agonist activity (EC50, M) was greater than 1e-06 M.

Which Agonist activity (EC50, M) [1] does the source give for Y[Aib]EGTFISDYSK([PEG(2)-Lauroyl])ALDR[Aib]HQQSFVNW[Iva]LAQRPSSGAPPPS (not fully specified (C-terminus); ends and bridges not checked) [Compound 224] here?
Its Agonist activity (EC50, M) is greater than 1e-06 M.

And the Agonist activity (EC50, M) [2]?
The Agonist activity (EC50, M) was 4.2e-12 M.

With Y[Aib]EGTFISDYSK([PEG3′-PEG3′-γGlu-C20 diacid])ALDR[Aib]HQ[Aib]NFVNW[Iva]LAQRPSSGAPPPS (not fully specified (C-terminus); ends and bridges not checked) [Compound 242] as the binder, how does the Agonist activity (EC50, M) [1] read?
The Agonist activity (EC50, M) was greater than 1e-06 M.

What about the Agonist activity (EC50, M) [2] of the same binder?
Its Agonist activity (EC50, M) is 6.7e-11 M.

Y[Aib]EGTFISDYSK([PEG2′-Lauroyl])ALDRIAQQDFVNWLLAQRPSSGAPPPSR (ends and bridges not checked) [Compound 184] was tested. Which Agonist activity (EC50, M) [1] did it give?
The Agonist activity (EC50, M) was 3e-08 M.

And the Agonist activity (EC50, M) [2]?
The Agonist activity (EC50, M) was 3.6e-12 M.

What does the source list for Y[Aib]EGTFISDYSIALDRK([PEG(2)-Pal])HQQDFVNWLLAQRPSSGAPPPS (not fully specified (C-terminus); ends and bridges not checked) [Compound 233]?
Agonist activity (EC50, M) [1]: > 1e-06 M; Agonist activity (EC50, M) [2]: 3.8e-12 M

What does the source list for Y[Aib]EGTFISDYSK([PEG(2)-Lauroyl])ALDR[Aib]AQQDFVNWLLAQRPSSGAPPPSR (ends and bridges not checked) [Compound 198]?
Agonist activity (EC50, M) [1]: 2.8e-08 M; Agonist activity (EC50, M) [2]: 4.5e-12 M

Which IC50 [3] does the source give for [NMeY][Aib]EGTFISDYSIALDR[Aib]AQ[Aib]NFVNW[Iva]LAQRPSSGAPPPSR (ends and bridges not checked) [Compound 84] here?
The IC50 was 1.2 nM.

What about the Agonist activity (EC50, M) [2] of the same binder?
The Agonist activity (EC50, M) was 1.2e-12 M.

Which results are given for Y[Aib]EGTFISDYSK([PEG2′-Lauroyl])ALDR[Aib]AQ[Aib]NFVNW[Iva]LAQRPSSGAPPPS (not fully specified (C-terminus); ends and bridges not checked) [Compound 211]?
Agonist activity (EC50, M) [1]: 2.6e-08 M; Agonist activity (EC50, M) [2]: 3.4e-12 M

For Y[Aib]EGTFISDYSK([PEG(2)-Lauroyl])ALDRIHQQDFVNWLLAQRPSSGAPPPS (ends and bridges not checked) [Compound 175], which Agonist activity (EC50, M) [1] is on record?
The Agonist activity (EC50, M) was greater than 1e-06 M.

What about the Agonist activity (EC50, M) [2] of the same binder?
Its Agonist activity (EC50, M) is 3.5e-12 M.

Which Agonist activity (EC50, M) [1] does the source give for Y[Aib]EGTFISDYSK([PEG2′-Lauroyl])ALDR[Aib]AQQD[αMeF]VNWLLAQRPSSGAPPPS (not fully specified (C-terminus); ends and bridges not checked) [Compound 213] here?
The Agonist activity (EC50, M) was 5.4e-08 M.

What about the Agonist activity (EC50, M) [2] of the same binder?
Its Agonist activity (EC50, M) is 3.1e-12 M.

With [NMeY][Aib]EGTFISDYSIALDRIAQ[Aib]SFVNW[Iva]LAQRPSSGAPPPSR (not fully specified (N-terminus, C-terminus); ends and bridges not checked) [Compound 124] as the binder, how does the IC50 [3] read?
Its IC50 is 1.6 nM.

And the Agonist activity (EC50, M) [1]?
Its Agonist activity (EC50, M) is greater than 1e-06 M.

What about the Agonist activity (EC50, M) [2] of the same binder?
The Agonist activity (EC50, M) was 1.7e-12 M.

What does the source list for Y[Aib]EGTFISDYSK([PEG(2)-Lauroyl])ALDRIHQ[Aib]NFVNWLLAQRPSSGAPPPS (ends and bridges not checked) [Compound 209]?
Agonist activity (EC50, M) [1]: > 1e-06 M; Agonist activity (EC50, M) [2]: 4.3e-12 M

What does the source list for [NMeY][Aib]EGTFISDYSI[dIva]LDRIAQ[Aib]N[αMeF]VNWLLAQRPSSGAPPPSR (ends and bridges not checked) [Compound 99]?
IC50 [3]: 2.1 nM; Agonist activity (EC50, M) [1]: > 1e-06 M; Agonist activity (EC50, M) [2]: 2.9e-12 M

For Me-Y[Aib]EGTFISDYSIALDRIAQQN[αMeF]VNWLLAQRPSSGAPPPSR (not fully specified (residue 1, C-terminus); ends and bridges not checked) [Compound 134], which IC50 [3] is on record?
The IC50 was 1.2 nM.

What about the Agonist activity (EC50, M) [1] of the same binder?
Its Agonist activity (EC50, M) is greater than 1e-06 M.

And the Agonist activity (EC50, M) [2]?
The Agonist activity (EC50, M) was 2.3e-12 M.

Which IC50 [3] does the source give for Y[Aib]EGTVVSLYSK([Gly-Gly-Gly-Gly-C20 diacid])[Aib]LDRQAQ[Aib]EFVK(Ac)WLLAQR (ends and bridges not checked) [Compound 260] here?
Its IC50 is 15 nM.

What about the Agonist activity (EC50, M) [1] of the same binder?
The Agonist activity (EC50, M) was greater than 1e-06 M.

And the Agonist activity (EC50, M) [2]?
Its Agonist activity (EC50, M) is 2.6e-10 M.

Which Agonist activity (EC50, M) [1] does the source give for Y[Aib]EGTFISDYSK([PEG2′-Undecanoyl])ALDRIAQQDFVNWLLAQRPSSGAPPPSR (ends and bridges not checked) [Compound 183] here?
Its Agonist activity (EC50, M) is 3.3e-08 M.

And the Agonist activity (EC50, M) [2]?
Its Agonist activity (EC50, M) is 3.4e-12 M.

For Y[Aib]EGTFISDYSK([PEG(2)-Lauroyl])[dIva]LDRIAQQDFVNWLLAQRPSSGAPPPS (ends and bridges not checked) [Compound 206], which Agonist activity (EC50, M) [1] is on record?
The Agonist activity (EC50, M) was greater than 1e-06 M.

What about the Agonist activity (EC50, M) [2] of the same binder?
The Agonist activity (EC50, M) was 2.1e-11 M.

Which results are given for Y[Aib]EGTFISDYSIALDRK([PEG(2)-dodec])HQ[Aib]NFVNW[Iva]LAQRPSSGAPPPS (not fully specified (C-terminus); ends and bridges not checked) [Compound 239]?
Agonist activity (EC50, M) [1]: 5e-08 M; Agonist activity (EC50, M) [2]: 2.5e-12 M

Which results are given for Y[Aib]EGTFISDYSK([PEG(2)-Lauroyl])ALDRIAQQDFVNWLLAQRPSSGAPPPS (ends and bridges not checked) [Compound 192]?
Agonist activity (EC50, M) [1]: 1.5e-08 M; Agonist activity (EC50, M) [2]: 6.5e-12 M

Which results are given for [NMeY][Aib]EGTFISDYSI[dIva]LDR[Aib]AQ[Aib]N[αMeF]VNWLLAQRPSSGAPPPSR (not fully specified (N-terminus, C-terminus); ends and bridges not checked) [Compound 106]?
IC50 [3]: 1.6 nM; Agonist activity (EC50, M) [1]: > 1e-06 M; Agonist activity (EC50, M) [2]: 1.7e-12 M
